Measurements: US20250092130A1 (INNATE PHARMA, published 2025)

How the values were obtained:
[1] = target: T1, KIR3DL2 mutant having I60N and G62S substitutions (human, UniProt P43630 22-455); experiment: binding to KIR3DL2 mutants
T1 construct: It says 'mutants'; also called mutants having 160N and G62S substitutions

[2] = target: KIR3DL2 mutant 11 (P179T, S181T) (human, UniProt P43630 22-455); experiment: binding to cells transfected with KIR3DL2 mutants
[3] = target: KIR3DL2 mutant 11A1 (V178A, H180S) (human, UniProt P43630 22-455); experiment: binding to cells transfected with KIR3DL2 mutants
[4] = target: KIR3DL2 mutant M11A4 (E130S, H131S, R145S) (human, UniProt P43630 22-455); experiment: binding to cells transfected with KIR3DL2 mutants
[5] = target: T2, human KIR3DL2 (wild-type, allele *002) (human, UniProt P43630 22-455); experiment: flow cytometry on HUT78, COU-L and HEK-293T/KIR3DL2 Domain 0-eGFP cells; Biacore on rec KIR3DL2 chips
T2 construct: also called CD158k; WTaKIR3DL2
Description: Antibodies which bind KIR3DL2 but not closely-related KIR3DL1 were generated by immunizing mice with recombinant KIR3DL2-Fc fusion protein. Supernatants (SN) of the growing hybridomas were tested by flow cytometry on Sézary Syndrome cell lines (HUT78, COU-L) and HEK-293T/KIR3DL2 Domain 0—eGFP. Potentially interesting hybridomas selected from the initial screening were cloned by limiting dilution techniques in 96-well plates. The secondary screen involved selection of hybridomas of interest by testing supernatants of the subclones by flow cytometry on HUT78, COU-L, HEK-293T/KIR3DL1 Domain 0—eGFP and HEK-293T/KIR3DL2 Domain 0—eGFP. Positive subclones were injected into mice to produce ascitis and antibodies of interest were purified before being tested in a Biacore assay using rec KIR3DL2 chips, followed by various assay formats based on binding to human KIR3DL2-expressing cells.

[6] = target: T2, human KIR3DL2 (wild-type, allele *002); experiment: immunohistochemistry (DAB) on frozen sections of RAJI-KIR3DL2 tumors and cell lines
Description: Tumor biopsies from RAJI-KIR3DL2 models and RAJI-KIR3DL2 cell lines were obtained and staining was performed on frozen samples using AZ158 antibody (see WO2010/081890) or antibodies 12B11 (see Example 1). KIR3DL2 was stained with anti-KIR3DL2 antibody by DAB chromogenic detection according to standard protocols, adapted for immunostaining with BenchMark XT (Ventana, Roche). For all staining control isotype (mIgG1) and control DAB were performed.

Chain of KIR3DL2 mutant 11A1 (V178A, H180S) (P43630 other isoform, or with tags, fused parts or gaps V178A H180S V178A H180S): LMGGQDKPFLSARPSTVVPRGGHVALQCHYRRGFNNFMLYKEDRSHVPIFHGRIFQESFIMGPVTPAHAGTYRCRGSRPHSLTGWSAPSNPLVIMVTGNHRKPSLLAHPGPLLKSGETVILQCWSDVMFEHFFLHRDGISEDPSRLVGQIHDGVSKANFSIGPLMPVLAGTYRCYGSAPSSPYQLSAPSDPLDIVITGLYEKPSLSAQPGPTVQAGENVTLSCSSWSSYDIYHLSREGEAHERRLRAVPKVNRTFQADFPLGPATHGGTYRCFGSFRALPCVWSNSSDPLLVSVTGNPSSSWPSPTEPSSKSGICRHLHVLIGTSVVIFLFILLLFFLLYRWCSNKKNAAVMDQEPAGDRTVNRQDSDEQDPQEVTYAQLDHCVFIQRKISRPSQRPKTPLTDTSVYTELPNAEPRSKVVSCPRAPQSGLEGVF
Chain of KIR3DL2 mutant 11 (P179T, S181T) (P43630 other isoform, or with tags, fused parts or gaps P179T S181T P179T S181T): as the sequence (P43630 other isoform, or with tags, fused parts or gaps V178A H180S V178A H180S) above, with A178V, P179T, S180H, S181T counted along it
T2 sequence (P43630 22-455 E158D): as the sequence (P43630 other isoform, or with tags, fused parts or gaps V178A H180S V178A H180S) above, with A178V, S180H counted along it
T1 sequence (P43630 other isoform, or with tags, fused parts or gaps I60N G62S I60N G62S): as the sequence (P43630 other isoform, or with tags, fused parts or gaps V178A H180S V178A H180S) above, with I60N, G62S, A178V, S180H counted along it
Chain of KIR3DL2 mutant M11A4 (E130S, H131S, R145S) (P43630 other isoform, or with tags, fused parts or gaps E130S H131S R145S E130S H131S R145S): as the sequence (P43630 other isoform, or with tags, fused parts or gaps V178A H180S V178A H180S) above, with E130S, H131S, R145S, A178V, S180H counted along it

B1: antibody 2B12 (antibody, V domains shown)
VH: QIQLVQSGPELKKPGETVRISCKASGYTFTTAGMQWVQKTPGKGLKWIGWINSHSGVPKYAEDFKGRFAFSLETSASTAYLQISTLKNEDTATYFCARGGDEGVMDYWGQGTSVTVS
VL: DIVMTQSHKFMSTSLGDRVSFTCKASQDVSTAVAWYQQKPGQSPKLLIYWTSTRHTGVPDRFTGSGSGTDYTLTISSVQAEDLALYYCQQHYSTPWTFGGGTKLEIK
Q: Does B1 bind [1]?
A: no binding

B2: antibody 19H12 (antibody, IgG2b, V domains shown)
VH: QIQLVQSGPELKKPGETVKISCKASGYTFTNFGMNWVKQAPGKGLKWMGWINTYTGEPTYADDFKGRFAFSLETSASTAYLQINNLKNEDMATYFCARNGNFGYYFDYWGQGTTLTVSS
VL: DVLMTQTPLSLPVSLGDQASFSCRSSQNIVHSNGNTYLEWYLQKPGQSPSLLIYKVSNRFSGVPDRFSGSGSGTDFTLKITRVEAEDLGVYYCFQGSHVPFTFGSGTKLEIK
notes: Mouse monoclonal from a hybridoma; also called anti-KIR3DL2 19H12
Q: Does B2 bind [2]?
A: no binding

Q: Does B2 bind [3]?
A: no binding

Q: Does B2 bind [4]?
A: no binding

Q: Does B2 bind [5]?
A: binds

B3: antibody 12B11 (antibody, IgG1, V domains shown)
VH: QLVQSGPELKNPGETVKISCKASGYTFTNYGMNWVKQAPGKGLKWMGWINTYTGEPTYADDFKGRFAFSLETSASTAYLQINNLKNEDTATYFCAHGPWLAYWGQGTLVTVS
VL: DIKMTQSPSSMYASLGERVTITCKASQDINVYLSWFQQKPGKSPKTLIYRAIRLVDGVPSRFSGSGSGQDYSLTISSLDYEDMGIYYCLQYDELPYTFGGGTKLEIE
notes: Mouse monoclonal
Q: Does B3 bind [2]?
A: no binding

Q: Does B3 bind [3]?
A: no binding

Q: Does B3 bind [6]?
A: binds
